How the values were obtained:
[1] = molecular target: T1, Presegetalin A1[14,32]E26A
T1 chain: GVPVWAFQAKDVANASAPV

[2] = molecular target: T2, Presegetalin A1[14,32]K23A
T2 chain: GVPVWAFQAADVENASAPV

[3] = molecular target: T3, Presegetalin A1[14,32]N27A
T3 chain: GVPVWAFQAKDVEAASAPV

[4] = molecular target: T4, Presegetalin A1[14,32]P16A
T4 chain: GVAVWAFQAKDVENASAPV

[5] = molecular target: T5, Presegetalin A1[14,32]P31A
T5 chain: GVPVWAFQAKDVENASAAV

[6] = molecular target: T6, Presegetalin A1[14,32]V15v
T6 chain: GVPVWAFQAKDVENASAPV

[7] = molecular target: T7, Presegetalin A1[14,32]V17A
T7 chain: GVPAWAFQAKDVENASAPV

[8] = molecular target: T8, Presegetalin A1[14,32]V32A
T8 chain: GVPVWAFQAKDVENASAPA

[9] = molecular target: T9, Presegetalin A1[14,32]W18A
T9 chain: GVPVAAFQAKDVENASAPV

Presegetalin H1[14,31] = molecular target: T10, Presegetalin H1[14,31]
T10 chain: GYRFSFQAKDAENASAPV

B1: Saponaria vaccaria PCY1 (recombinant, N-terminal His6-tag, expressed in E. coli from pCB008) (protein)
chain: MATSGFSKPLHYPPVRRDETVVDDYFGVKVADPYRWLEDPNSEETKEFVDNQEKLANSVLEECELIDKFKQKIIDFVNFPRCGVPFRRANKYFHFYNSGLQAQNVFQMQDDLDGKPEVLYDPNLREGGRSGLSLYSVSEDAKYFAFGIHSGLTEWVTIKILKTEDRSYLPDTLEWVKFSPAIWTHDNKGFFYCPYPPLKEGEDHMTRSAVNQEARYHFLGTDQSEDILLWRDLENPAHHLKCQITDDGKYFLLYILDGCDDANKVYCLDLTKLPNGLESFRGREDSAPFMKLIDSFDASYTAIANDGSVFTFQTNKDAPRKKLVRVDLNNPSVWTDLVPESKKDLLESAHAVNENQLILRYLSDVKHVLEIRDLESGALQHRLPIDIGSVDGITARRRDSVVFFKFTSILTPGIVYQCDLKNDPTQLKIFRESVVPDFDRSEFEVKQVFVPSKDGTKIPIFIAARKGISLDGSHPCEMHGYGGFGINMMPTFSASRIVFLKHLGGVFCLANIRGGGEYGEEWHKAGFRDKKQNVFDDFISAAEYLISSGYTKARRVAIEGGSNGGLLVAACINQRPDLFGCAEANCGVMDMLRFHKFTLGYLWTGDYGCSDKEEEFKWLIKYSPIHNVRRPWEQPGNEETQYPATMILTADHDDRVVPLHSFKLLATMQHVLCTSLEDSPQKNPIIARIQRKAAHYGRATMTQIAEVADRYGFMAKALEAPWID
CP (cyclic peptide product detected by LC/MS) [1]: +
LP (linear peptide product detected by LC/MS) [1]: +
linear segetalin A production relative to WT substrate [1]: showed a relative increase in production of linear segetalin A
segetalin A production relative to WT substrate [1]: substitutions at positions 25, 26 and 29 (No. 18, 19 and 22) yielded relatively higher amounts of segetalin A than that produced from WT substrate
CP (cyclic peptide product detected by LC/MS) [2]: +
LP (linear peptide product detected by LC/MS) [2]: +
linear segetalin A production relative to WT substrate [2]: showed a relative increase in production of linear segetalin A
segetalin A production relative to WT substrate [2]: positions were found to be sensitive to substitution ... position 20, 21, 23, 24, 27, 28 and 31
CP (cyclic peptide product detected by LC/MS) [3]: +
LP (linear peptide product detected by LC/MS) [3]: +
linear segetalin A production relative to WT substrate [3]: showed a relative increase in production of linear segetalin A
segetalin A production relative to WT substrate [3]: positions were found to be sensitive to substitution ... position 20, 21, 23, 24, 27, 28 and 31
CP (cyclic peptide product detected by LC/MS) [4]: +
LP (linear peptide product detected by LC/MS) [4]: +
CP (cyclic peptide product detected by LC/MS) [5]: +
LP (linear peptide product detected by LC/MS) [5]: +
linear segetalin A production relative to WT substrate [5]: showed a relative increase in production of linear segetalin A
segetalin A production relative to WT substrate [5]: the P31A mutant (No. 24 in Table 3) was found to yield […]11 times less segetalin A than that produced from the WT substrate
CP (cyclic peptide product detected by LC/MS) [6]: +
LP (linear peptide product detected by LC/MS) [6]: +
CP (cyclic peptide product detected by LC/MS) [7]: +
LP (linear peptide product detected by LC/MS) [7]: +
CP (cyclic peptide product detected by LC/MS) [8]: +
LP (linear peptide product detected by LC/MS) [8]: +
linear segetalin A production relative to WT substrate [8]: showed a relative increase in production of linear segetalin A
CP (cyclic peptide product detected by LC/MS) [9]: +
LP (linear peptide product detected by LC/MS) [9]: -
CP (cyclic peptide product detected by LC/MS) (Presegetalin H1[14,31]): +
LP (linear peptide product detected by LC/MS) (Presegetalin H1[14,31]): -

Reference: patent US20140363844
